Measurements reported in paper doi:10.1101/2025.10.29.685445 (2025).

T1: HCoV-HKU1 RBD (residues 310-606 of isolate N5), Fc- and His-tagged (HCoV-HKU1 (isolate N5), UniProt Q0ZME7 310-606)
T1 chain: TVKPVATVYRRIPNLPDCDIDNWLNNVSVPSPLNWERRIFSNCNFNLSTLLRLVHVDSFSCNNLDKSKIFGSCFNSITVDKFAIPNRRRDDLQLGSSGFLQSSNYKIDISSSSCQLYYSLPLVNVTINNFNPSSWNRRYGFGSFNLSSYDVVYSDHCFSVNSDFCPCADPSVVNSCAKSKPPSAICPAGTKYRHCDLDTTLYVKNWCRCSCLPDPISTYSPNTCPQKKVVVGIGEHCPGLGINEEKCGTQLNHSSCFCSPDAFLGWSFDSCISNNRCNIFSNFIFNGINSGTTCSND

B1: HCoV-HKU1 RBD (residues 310-606 of isolate N5), as used in BLI (domain or fragment)
chain: T1 chain
B2: H501-008 Fab (Fab, V domains shown)
VH: QVQLVQSGGGVVQPGRSLRLSCAVSGFTLDRYAMHWVRQAPGKALEWVALMSADGREQYYAESVKGRFTFSRDSSKNTLYLQMHNLRTDDSSVYFCAREGPMYYDAWSGRSYYNNYALDVWGRGTTVAVSS
VL: QSVLTQPPSVSAAPGQTVTISCSGSSSNIGDNYVSWYQQVPGTAPRLLVYDNNRRPLGIPDRFSGSKSGTSATLAIAGLQTGDEADYYCGTWDSSLSAGVFGGGTKLTVV

What was measured:
H501-009 = assay: BLI
H501-016 = assay: BLI
H501-013 = assay: BLI
H501-012 = assay: BLI
H501-020 = assay: BLI
H501-015 = assay: BLI
H501-003 = assay: BLI
[1] = biological target: HCoV-OC43 S1-CTD (residues 318-608), Fc- and His-tagged (HCoV-OC43); assay: SPR
[2] = biological target: T1, HCoV-HKU1 RBD (residues 310-606 of …); assay: SPR

Binder	Kd (H501-009)	koff (H501-009)	Kd (H501-016)	koff (H501-016)	Kd (H501-013)	koff (H501-013)	Kd (H501-012)	koff (H501-012)	Kd (H501-020)	koff (H501-020)	Kd (H501-015)	koff (H501-015)	Kd (H501-003)	koff [1]	koff [2]
B1	5440 pM	0.000383 s⁻¹	176 pM	3.26e-05 s⁻¹	915 pM	0.000209 s⁻¹	1870 pM	0.000326 s⁻¹	< 1 pM	< 1e-07 s⁻¹	568 pM	0.000117 s⁻¹	508 pM		
B2														0.042 s⁻¹	0.000197 s⁻¹
